# According to US7303752B2, “Hookworm vaccine” (The George Washington University, priority 2001, dated 2007):
# B1: Ac-AP: A. caninum factor Xa inhibitor anticoagulant, SEQ ID NO: 54; * marks the single dog with positive immune response (protein, listed as Ancylostoma caninum)
# chain: KAYPECGENEWLDDCGTQKPCEAKCNEEPPEEEDPICRSRGCLLPPACVCKDGFYRDTVIGDCVREEECDQHEIIHV
# B2: Na-ASP-1: Necator americanus secreted protein antigen, SEQ ID NO: 2; Pichia-expressed recombinant (protein, listed as Necator americanus)
# chain: MFSPVVVSVVFTIAFCNASPARDSFGCSNSGITDSDRQAFLDFHNNARRRVAKGLEDSNSGKLNPAKNMYKLSWDCAMEQQLQDAIQSCPSGFAGIQGVAQNTMSWSSSGGYPDPSVKIEPTLSGWWSGAKKNGVGPDNKYTGGGLFAFSNMVYSETTKLGCAYKVCGTKLAVSCIYNGVGYITNQPMWETGQACQTGADCSTYKNSGCEDGLCTKGPDVPETNQQCPSNTGMTDSVRDTFLSVHNEFRSSVARGLEPDALGGNAPKAAKMLKMVYDCEVEASAIRHGNKCVYQHSHGEDRPGLGENIYKTSVLKFDKNKAAKQASQLWWNELKEYGVGPSNVLTTALWNRPNMQIGHYTQMAWDTTYKLGCAVVFCNDFTFGVCQYGPGGNYMGHVIYTMGQPCSQCSPGATCSVTEGLCSAP
# What was measured:
# [1] = system: A. caninum; assay: Canine vaccine trial with Ac-TMP, Ac-AP, Ac-APR-1, oral challenge with 400 A. caninum L3; assay type: in vivo, dog
# Source text: Study dogs and animal husbandry: Following protocol approval by The George Washington University Institutional Animal Care and Use Committee (IACUC), purpose bred, parasite naïve, male beagles 8±1 week of age were purchased, identified by ear tattoo, and maintained in the AALAC (Association for Assessment and Accreditation of Laboratory Animal Care) accredited George Washington University Animal Research Facility. The dogs were housed in a room dedicated for the study, at a room temperature of 70±4° F., with 10-15 air changes per hour comprised of 100 percent fresh air, and 12 hr light cycles alternating with 12 hr dark cycles. The airflow and timer functions were monitored daily. The dogs were fed on a diet of Teklad Certified Dog Chow #8727, supplemented with a canned soft diet in the event of anorexia. The drinking water was piped from a filter plant and delivered via automatc water system; water analysis was performed by the U.S. Army Corps of Engineers. Water from the facilities automatic system is cultured for bacteria and fungi annually. The pens were flushed daily and sanitized every two weeks. Dogs within a given study group were permitted to live together and socialize prior to the hookworm larval challenge, but were caged individually post-infection. All dogs were quarantined for approximately one week before beginning the vaccine trial. Prior to vaccination a complete blood count (CBC), serum chemistries, and a pre-vaccination serum sample were obtained.
# Vaccine study design and sample size: The vaccine trial was designed to test three different antigens, each formulated with alum, as well as an alum adjuvant control. A total of 24 dogs were randomly assigned into four groups comprised of 6 dogs each. The canine sample size was selected on the ability to detect a 40-50 percent reduction in the numbers of adult hookworms in the small intestines of the vaccinated group relative to control dogs, at a statistical power of 80 percent (alpha=0.05, two-tailed). The data were derived from the mean and standard deviation of adult hookworms previously recovered from age-matched dogs infected with 400 A. caninum L3 (Hotez et al, 2002).
# Recombinant Antigens: Each group of 6 dogs was vaccinated with recombinant hookworm proteins expressed as fusion proteins either in Escherichia coli or in an insect cell line with baculovirus. Ac-AP (Cappello et al, 1995; 1996) and Ac-TMP, were expressed in E. coli as pET 28 (Novagen) fusion proteins containing a polyhistidine tag (Cappello et al, 1996). Ac-APR-1 (Harrop et al, 1996) was expressed in a baculovirus pBacPAK6 vector (Clontech), modified to contain a polyhistidine-encoding sequence and additional restriction enzyme sites (Brindley et al, 2001). Recombinant Ac-AP and Ac-TMP fusion proteins were then purified by nickel affinity chromatography, followed by a second step of purification. In the case of Ac-AP (Cappello et al, 1995; 1996), the recombinant protein was purified by mono-S (Amersham-Pharmacia) ion exchange chromatography, while Ac-TMP (Zhan et al, 2002) was purified by superdex 75 (Amersham-Pharmacia) gel filtration chromatography. Ac-APR-1 (Harrop et al, 1996) was purified by substrate affinity chromatography using pepstatin agarose (Brindley et al, 2001). The antigen stock protein concentration was determined by Pierce Micro BCA assay (Pierce Chemicals) or by the absorbance of the sample at […] using an extinction coefficient that was calculated from the deduced amino acid composition of the fusion protein. The amount of alum adsorbed protein in each dose of antigen was measured by the Pierce Micro BCA assay using a bovine serum albumin standard. The relative purity of each of the antigens relative to contaminating E. coli or insect cell proteins was determined by analysis on sodium dodecyl sulfate polyacrylamide gel electrophoresis (SDS-PAGE). […]
# [2] = system: antigen-specific canine IgG1 antibodies; assay: ELISA of antigen-specific canine IgG1, trial with Ac-TMP, Ac-AP, Ac-APR-1; assay type: in vivo, dog; settings: five of the six vaccinated dogs
# Experimental: Canine Immunizations: A four-dose immunization schedule was selected (Table II). Each of the dogs was vaccinated by subcutaneous immunization at two sites in the shoulder, through a 22 gauge needle. The volume of the injections ranged between 0.5 and 1.0 ml. Four doses of each antigen were administered over a 38-day period. The first two injections (primary immunization) were administered on days 1 and 4, and the final two immunizations (boosts) were administered on days 34 and 38. Dogs in the control group were injected with an equivalent amount of alum.
# Canine antibody measurements: Blood was collected weekly by venipuncture and the serum was separated and stored frozen at −20° C. Antigen-specific canine IgG1 antibodies were measured by indirect enzyme-linked immunosorbent assay (ELISA). Other IgG subclasses were not measured due to the unavailability of suitable high-quality canine-specific reagents. The optimal concentrations of sample sera and enzyme-linked detection antibody were determined by checkerboard titrations. Optimal antigen concentrations were determined by using a saturation technique. […] The plates were incubated in the dark for 30 minutes and read at a wavelength of 405 nm on a SpectraMax 240 PC reader (Molecular Devices, Sunnyvale, Calif.) with SOFTmax Pro software (Molecular Devices, Sunnyvale, Calif.). […]
# [3] = system: CD-4+lymphocytes; assay: Intracellular cytokine staining of antigen-stimulated CD4+ lymphocytes of hookworm-infected residents; assay type: cell-based, human; settings: CD4+ lymphocytes from whole blood of hookworm infected residents
# Experimental: The underlying immunological mechanisms accounting for this observation has been investigated. Shown in FIGS. 40 and 41, CD-4+lymphocytes were gated from the whole blood of hookworm infected residents and stimulated with either L3 soluble hookworm antigen FIG. 40) or Pichia-expressed recombinant Na-ASP-1 (FIG. 41). Host cytokine production was measured by an intracellular cytokine staining technique. […] IL-10 is a strong immunomodulator with downregulatory, anti-inflammatory properties, and IL-4 is associated with antibody production and TH-2 type immunity.
# [4] = single dog with positive immune response
molecule,measurement,setting,value
B1,% Decrease of adult hookworms in the small intestines relative to alum-injected dogs,[1]; group,4.5%
same,% Increase of adult hookworms in the colons relative to alum-injected dogs,[1]; group,183%
same,"adult A. caninum hookworms in the colons, Median","[1]; group median, alum control 4",14
same,"adult hookworms in the small intestines, Median","[1]; group median, alum control 180",170
same,small intestine to colon hookworm burden ratio,[1]; single dog with anti-Ac-AP antibody response,1.6
same,% Decrease of adult hookworms in the small intestine relative to alum-injected dogs,[1]; [4],34.7%
same,% Increase of adult hookworms in the colon relative to alum-injected dogs,[1]; [4],1083%
same,"adult A. caninum hookworms in the colon, Mean",[1]; [4],71
same,"adult A. caninum hookworms in the colon, Median",[1]; [4],71
same,"adult hookworms in the small intestine, Mean",[1]; [4],115
same,"adult hookworms in the small intestine, Median",[1]; [4],115
same,immunological response to the antigen,[2],failed to respond immunologically
B2,host cytokine production,[3],"high levels of IL-10 and IL-5, but not IL-4"
